Data reported in article PMC4895014.
Values joined by “and” are separate entries in the source; they are usually repeats but may differ in a detail not shown here. Equal values may be shown once.

Biological target: recombinant full-length H7 hemagglutinin of A/Anhui/1/2013 (H7N9) influenza virus (influenza A virus A/Anhui/1/2013 (H7N9))
Assay: […]; 500 ug/ml in PBS, […]

Substance: recombinant full-length H7 hemagglutinin of A/Anhui/1/2013 (H7N9) influenza virus (natural protein)
- stoichiometry N (units (HA molecules per complex)): 6 and 7 and 8
